Results as given in publication PMC11838199.

Target: C12ORF57-FLAG (human) (UniProt Q99622)
Assay: co-IP

Sequence of UniProt Q99622 (Q99622 whole entry): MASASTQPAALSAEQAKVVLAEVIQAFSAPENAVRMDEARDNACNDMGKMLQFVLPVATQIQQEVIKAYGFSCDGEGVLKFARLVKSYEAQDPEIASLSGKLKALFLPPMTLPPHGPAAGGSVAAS

Substance	change in CAMK4 co-precipitated with C12ORF57-FLAG, against wild type CAMK4 [%]
CAMK4 lacking the autoinhibitory domain (NAI) (from UniProt Q16566 1-473) (enzyme)	-65.8
CAMK4 lacking the calmodulin binding domain (NCB) (from UniProt Q16566 1-473) (enzyme)	-6.13
